From paper doi:10.1101/259481 (bioRxiv, 2018)
Like-named read-outs stand apart in the source and are kept apart here.

T1: recombinant laminin α3_(2928-3150) protein (human, UniProt Q16787 2928-3150)
T1 sequence (looked up): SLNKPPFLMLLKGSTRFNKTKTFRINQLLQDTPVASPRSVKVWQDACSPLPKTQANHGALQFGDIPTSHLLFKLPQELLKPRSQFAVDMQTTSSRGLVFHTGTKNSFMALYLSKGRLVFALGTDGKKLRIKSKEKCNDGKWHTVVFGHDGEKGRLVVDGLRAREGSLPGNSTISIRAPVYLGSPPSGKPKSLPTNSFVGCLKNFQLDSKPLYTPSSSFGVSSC

T2: recombinant human syndecan-1 (human, UniProt P18827 23-254)
T2 sequence (looked up): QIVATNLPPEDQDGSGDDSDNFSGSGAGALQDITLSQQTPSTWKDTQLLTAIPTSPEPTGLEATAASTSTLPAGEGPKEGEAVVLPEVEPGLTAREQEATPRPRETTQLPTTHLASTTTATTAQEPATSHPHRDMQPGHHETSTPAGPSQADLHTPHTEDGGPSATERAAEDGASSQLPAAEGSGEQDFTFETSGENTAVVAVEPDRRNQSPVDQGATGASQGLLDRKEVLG

T3: recombinant human syndecan-4 (human, UniProt P31431 19-145)
T3 sequence (looked up): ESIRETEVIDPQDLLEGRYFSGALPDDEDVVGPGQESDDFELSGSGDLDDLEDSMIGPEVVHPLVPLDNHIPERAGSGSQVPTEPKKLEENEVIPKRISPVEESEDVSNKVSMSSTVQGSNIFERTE

B1: platelet-derived growth factor (PDGF)-BB (ligand, human, UniProt P01127 82-190, looked up)
chain: SLGSLTIAEPAMIAECKTRTEVFEISRRLIDRTNANFLVWPPCVEVQRCSGCCNNRNVQCRPTQVQLRPVQVRKIEIVRKKPIFKKATVTLEDHLACKCETVAAARPVT
B2: placental growth factor (PlGF)-2 (ligand, human, UniProt P49763-3 19-170, looked up)
chain: LPAVPPQQWALSAGNGSSEVEVVPFQEVWGRSYCRALERLVDVVSEYPSEVEHMFSPSCVSLLRCTGCCGDENLHCVPVETANVTMQLLKIRSGDRPSYVELTFSQHVRCECRPLREKMKPERRRPKGRGKRRREKQRPTDCHLCGDAVPRR

Columns and labels:
laminin-521 = laminin-521 (human, UniProt O15230 36-3695; P55268 33-1798; P11047 34-1609); experiment: SPR
[1] = target: recombinant laminin α3_(2928-3150) protein (human) (UniProt Q16787); experiment: SPR
laminin-421 = laminin-421 (human, UniProt Q16363 25-1823; P55268 33-1798; P11047 34-1609); experiment: ELISA
laminin-411 = laminin-411 (human, UniProt Q16363 25-1823; P07942 22-1786; P11047 34-1609); experiment: ELISA
laminin-111 [2] = target: T4, laminin-111 (human, UniProt P25391 18-3075; P07942 22-1786; P11047 34-1609); experiment: ELISA
laminin-211 [3] = target: T5, laminin-211 (human, UniProt P24043 23-3122; P07942 22-1786; P11047 34-1609); experiment: ELISA
[4] = target: T1, recombinant laminin α3_(2928-3150) …; experiment: SPR
[5] = target: fibroblast growth factor (FGF)-2 (human, UniProt P09038 143-288); experiment: ELISA
Chain of fibroblast growth factor (FGF)-2 (P09038 143-288): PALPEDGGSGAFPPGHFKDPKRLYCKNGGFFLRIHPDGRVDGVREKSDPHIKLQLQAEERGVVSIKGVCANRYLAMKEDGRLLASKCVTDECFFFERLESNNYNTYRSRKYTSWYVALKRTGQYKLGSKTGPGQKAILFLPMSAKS

[6] = target: B1; experiment: ELISA
[7] = target: B2; experiment: ELISA
[8] = target: T2, recombinant human syndecan-1; experiment: ELISA
[9] = target: recombinant human syndecan-2 (human, UniProt P34741 19-144); experiment: ELISA
Chain of recombinant human syndecan-2 (P34741 19-144): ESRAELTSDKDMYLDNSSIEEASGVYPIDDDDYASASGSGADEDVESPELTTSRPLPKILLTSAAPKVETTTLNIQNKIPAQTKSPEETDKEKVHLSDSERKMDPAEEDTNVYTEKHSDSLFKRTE

[10] = target: T3, recombinant human syndecan-4; experiment: ELISA
[11] = target: T1, recombinant laminin α3_(2928-3150) …; experiment: ELISA
laminin-111 [12] = target: T4, laminin-111; experiment: ELISA; remark: listed apart in the source
laminin-211 [13] = target: T5, laminin-211; experiment: ELISA; remark: listed apart in the source

Row | Molecule | Kd (laminin-521) [nM] | binding result [5] | binding result [6] | binding result [7] | binding result [8] | binding result [9] | binding result [10] | also measured
1 | vascular endothelial growth factor (VEGF)-A165 (ligand) | 5.8 | – | – | – | – | – | – | Kd [1]: 1.2 nM
2 | B1 | 24.2 | – | – | – | – | – | – | binding result (laminin-421): binds; binding result (laminin-411): binds; binding result (laminin-111 [2]): binds; binding result (laminin-211 [3]): binds; Kd [4]: 10.2 nM
3 | RQRSRPGRWHKVSVRWEKNR (peptide, UniProt O15230 3417-3436, looked up) [laminin-derived peptide α5_(3417-3436)] | – | binds | binds | binds | binds | binds | binds | –
4 | TPGLGPRGLQATARKASRRSRQPARHPACML (peptide, UniProt O15230 3300-3330, looked up) [laminin-derived peptide α5_(3300-3330)] | – | – | – | binds | binds | binds | binds | –
5 | B2 | 12.9 | – | – | – | – | – | – | binding result (laminin-421): binds; binding result (laminin-411): binds; binding result [11]: binds; binding result (laminin-111 [12]): binds; binding result (laminin-211 [13]): binds
6 | TLPDVGLELEVR (peptide, UniProt O15230 3539-3550, looked up) [laminin-derived peptide α5_(3539-3550)] | – | binds | binds | binds | – | – | – | –
7 | RLVFALGTDGKKLRIKSKEKCNDGK (peptide, UniProt Q16787 3043-3067, looked up) [laminin-derived peptide α3_(3043-3067)] | – | binds | binds | binds | binds | binds | binds | –
8 | PPFLMLLKGSTRFNKTKTFR (peptide, UniProt Q16787 2932-2951, looked up) [laminin-derived peptide α3_(2932-2951)] | – | binds | – | – | – | – | – | –
